Reference: patent US20260151499A1, “ANTIBODY DERIVATIVE AND USE THEREOF” (TSINGHUA UNIVERSITY, priority 2023, published 2026)
Residue numbers refer to the chain shown, from its start.

What was measured:
[1] = biological target: T1, NaV1.2 (Homo sapiens, UniProt Q99250); experiment: Whole-cell patch clamp, HEK293-NaV1.2 cells; type: cell-based; conditions: for inhibitory activity against NaV1.2 (in words): tested up to 500 nM; for inhibitory activity against NaV1.2 at 100 nM (in words): 100 nM Ab-ASF
T1 construct: expressed in transfected cells; host or cells: HEK293
T1 sequence (Q99250 whole entry): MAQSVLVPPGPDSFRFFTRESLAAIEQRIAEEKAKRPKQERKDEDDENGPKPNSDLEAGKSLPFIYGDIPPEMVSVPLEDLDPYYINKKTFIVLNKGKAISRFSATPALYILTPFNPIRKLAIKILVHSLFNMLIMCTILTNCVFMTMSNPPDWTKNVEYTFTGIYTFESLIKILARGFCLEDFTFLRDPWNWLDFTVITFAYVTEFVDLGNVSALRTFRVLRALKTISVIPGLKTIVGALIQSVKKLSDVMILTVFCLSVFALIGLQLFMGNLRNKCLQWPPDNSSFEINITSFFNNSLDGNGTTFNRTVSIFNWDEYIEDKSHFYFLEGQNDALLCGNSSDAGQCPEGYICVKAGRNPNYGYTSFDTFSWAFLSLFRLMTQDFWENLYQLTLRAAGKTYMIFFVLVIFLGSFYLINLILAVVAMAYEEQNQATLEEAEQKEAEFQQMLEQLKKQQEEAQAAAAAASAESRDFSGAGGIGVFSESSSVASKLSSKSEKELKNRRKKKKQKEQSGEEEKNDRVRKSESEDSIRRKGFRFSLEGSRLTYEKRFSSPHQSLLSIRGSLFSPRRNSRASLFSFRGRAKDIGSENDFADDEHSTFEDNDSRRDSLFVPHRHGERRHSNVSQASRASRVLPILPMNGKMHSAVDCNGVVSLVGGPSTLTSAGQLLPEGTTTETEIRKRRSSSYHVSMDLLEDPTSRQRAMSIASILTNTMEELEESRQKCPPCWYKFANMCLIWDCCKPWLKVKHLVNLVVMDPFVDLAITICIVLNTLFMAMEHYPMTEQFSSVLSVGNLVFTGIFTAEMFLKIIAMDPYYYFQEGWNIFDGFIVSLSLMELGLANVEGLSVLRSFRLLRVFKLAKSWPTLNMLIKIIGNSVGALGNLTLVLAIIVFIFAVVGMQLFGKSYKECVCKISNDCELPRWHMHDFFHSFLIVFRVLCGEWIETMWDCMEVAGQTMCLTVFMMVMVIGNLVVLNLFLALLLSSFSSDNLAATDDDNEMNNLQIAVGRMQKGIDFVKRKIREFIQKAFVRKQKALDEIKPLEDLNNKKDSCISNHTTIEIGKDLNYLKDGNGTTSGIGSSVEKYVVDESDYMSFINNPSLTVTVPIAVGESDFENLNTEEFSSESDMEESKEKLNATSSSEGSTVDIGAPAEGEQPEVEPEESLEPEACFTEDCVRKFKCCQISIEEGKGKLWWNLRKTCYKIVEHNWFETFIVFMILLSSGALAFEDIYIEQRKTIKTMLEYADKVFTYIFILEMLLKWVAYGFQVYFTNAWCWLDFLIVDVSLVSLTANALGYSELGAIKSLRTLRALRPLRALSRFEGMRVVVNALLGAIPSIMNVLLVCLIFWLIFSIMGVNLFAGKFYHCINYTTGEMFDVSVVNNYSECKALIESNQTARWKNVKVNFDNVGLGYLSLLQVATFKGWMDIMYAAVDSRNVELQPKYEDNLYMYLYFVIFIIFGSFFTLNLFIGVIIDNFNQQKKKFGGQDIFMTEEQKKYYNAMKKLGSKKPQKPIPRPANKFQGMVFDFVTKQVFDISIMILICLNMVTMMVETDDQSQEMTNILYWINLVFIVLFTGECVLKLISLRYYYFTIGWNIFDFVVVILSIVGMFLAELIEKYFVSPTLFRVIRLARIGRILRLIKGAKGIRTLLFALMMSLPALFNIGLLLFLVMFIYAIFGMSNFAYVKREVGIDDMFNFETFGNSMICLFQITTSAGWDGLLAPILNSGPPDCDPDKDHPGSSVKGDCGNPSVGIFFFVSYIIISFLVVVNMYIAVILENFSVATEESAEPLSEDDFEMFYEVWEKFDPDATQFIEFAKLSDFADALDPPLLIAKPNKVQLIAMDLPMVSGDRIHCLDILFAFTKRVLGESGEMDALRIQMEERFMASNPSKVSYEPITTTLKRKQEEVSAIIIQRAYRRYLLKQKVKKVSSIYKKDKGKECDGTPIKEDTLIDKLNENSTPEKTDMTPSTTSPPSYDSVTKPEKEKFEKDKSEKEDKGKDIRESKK

[2] = biological target: T2, NaV1.7 (Homo sapiens, UniProt Q15858); experiment: Whole-cell patch clamp, HEK293-NaV1.7 cells; type: cell-based; conditions: for inhibitory activity against NaV1.7 (in words): tested up to 500 nM where selectivity
T2 construct: expressed in transfected cells; host or cells: HEK293
T2 sequence (Q15858 whole entry): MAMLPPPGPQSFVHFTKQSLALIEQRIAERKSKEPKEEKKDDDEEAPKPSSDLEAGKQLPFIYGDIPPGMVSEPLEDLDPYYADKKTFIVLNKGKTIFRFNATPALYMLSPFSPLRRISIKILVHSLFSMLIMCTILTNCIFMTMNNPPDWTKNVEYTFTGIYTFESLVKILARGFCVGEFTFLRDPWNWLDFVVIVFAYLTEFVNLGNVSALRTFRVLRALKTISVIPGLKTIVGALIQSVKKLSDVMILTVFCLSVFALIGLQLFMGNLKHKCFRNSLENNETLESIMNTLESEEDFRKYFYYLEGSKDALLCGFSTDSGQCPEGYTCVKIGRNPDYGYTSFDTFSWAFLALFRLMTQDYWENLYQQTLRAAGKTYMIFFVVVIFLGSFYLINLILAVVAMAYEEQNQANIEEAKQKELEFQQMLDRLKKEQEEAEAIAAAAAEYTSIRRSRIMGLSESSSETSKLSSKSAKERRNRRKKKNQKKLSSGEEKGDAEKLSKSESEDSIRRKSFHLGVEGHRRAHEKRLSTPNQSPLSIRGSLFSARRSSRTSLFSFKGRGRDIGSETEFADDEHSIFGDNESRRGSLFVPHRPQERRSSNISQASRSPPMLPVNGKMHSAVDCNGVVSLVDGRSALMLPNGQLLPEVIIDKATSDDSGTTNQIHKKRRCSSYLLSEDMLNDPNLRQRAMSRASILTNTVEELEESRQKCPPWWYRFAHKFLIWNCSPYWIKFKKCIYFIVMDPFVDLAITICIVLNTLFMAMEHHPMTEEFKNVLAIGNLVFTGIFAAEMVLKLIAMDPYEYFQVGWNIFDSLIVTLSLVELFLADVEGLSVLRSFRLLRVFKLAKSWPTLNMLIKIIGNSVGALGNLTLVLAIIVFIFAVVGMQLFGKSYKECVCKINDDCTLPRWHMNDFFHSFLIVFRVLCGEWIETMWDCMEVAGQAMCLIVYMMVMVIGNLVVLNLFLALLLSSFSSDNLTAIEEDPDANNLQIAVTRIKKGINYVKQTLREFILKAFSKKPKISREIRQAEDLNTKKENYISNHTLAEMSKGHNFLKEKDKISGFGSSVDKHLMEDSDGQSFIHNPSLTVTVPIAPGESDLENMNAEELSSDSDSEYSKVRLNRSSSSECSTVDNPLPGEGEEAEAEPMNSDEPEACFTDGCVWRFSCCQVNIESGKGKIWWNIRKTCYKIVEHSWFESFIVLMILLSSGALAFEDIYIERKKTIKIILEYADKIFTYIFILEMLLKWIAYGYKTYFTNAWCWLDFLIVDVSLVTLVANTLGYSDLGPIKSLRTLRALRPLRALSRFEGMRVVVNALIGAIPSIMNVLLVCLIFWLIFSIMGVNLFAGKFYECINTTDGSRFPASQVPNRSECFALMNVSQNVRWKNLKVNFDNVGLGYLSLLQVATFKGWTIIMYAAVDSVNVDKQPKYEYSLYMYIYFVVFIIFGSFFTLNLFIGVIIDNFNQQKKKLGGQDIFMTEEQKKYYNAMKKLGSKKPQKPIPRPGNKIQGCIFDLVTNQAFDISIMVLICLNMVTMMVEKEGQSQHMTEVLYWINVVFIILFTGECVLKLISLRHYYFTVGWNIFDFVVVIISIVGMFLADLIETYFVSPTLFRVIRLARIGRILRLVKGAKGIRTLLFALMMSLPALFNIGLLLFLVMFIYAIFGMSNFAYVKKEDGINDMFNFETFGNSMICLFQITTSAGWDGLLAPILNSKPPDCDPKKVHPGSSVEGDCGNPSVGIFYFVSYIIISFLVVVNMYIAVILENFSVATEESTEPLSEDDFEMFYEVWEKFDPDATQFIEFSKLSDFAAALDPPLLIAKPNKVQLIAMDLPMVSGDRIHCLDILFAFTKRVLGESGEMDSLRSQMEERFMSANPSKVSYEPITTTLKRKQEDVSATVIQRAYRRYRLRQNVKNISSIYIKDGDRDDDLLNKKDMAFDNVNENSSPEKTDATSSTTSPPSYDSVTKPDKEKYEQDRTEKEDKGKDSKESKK

[3] = biological target: T3, CD73 (Homo sapiens, UniProt P21589); experiment: Octet BLI affinity for CD73, Ab-BN3 on protein A sensors; type: binding
T3 construct: His (Chis) (C); made in house; host or cells: 293 cells
T3 sequence (P21589 27-549 limits assumed): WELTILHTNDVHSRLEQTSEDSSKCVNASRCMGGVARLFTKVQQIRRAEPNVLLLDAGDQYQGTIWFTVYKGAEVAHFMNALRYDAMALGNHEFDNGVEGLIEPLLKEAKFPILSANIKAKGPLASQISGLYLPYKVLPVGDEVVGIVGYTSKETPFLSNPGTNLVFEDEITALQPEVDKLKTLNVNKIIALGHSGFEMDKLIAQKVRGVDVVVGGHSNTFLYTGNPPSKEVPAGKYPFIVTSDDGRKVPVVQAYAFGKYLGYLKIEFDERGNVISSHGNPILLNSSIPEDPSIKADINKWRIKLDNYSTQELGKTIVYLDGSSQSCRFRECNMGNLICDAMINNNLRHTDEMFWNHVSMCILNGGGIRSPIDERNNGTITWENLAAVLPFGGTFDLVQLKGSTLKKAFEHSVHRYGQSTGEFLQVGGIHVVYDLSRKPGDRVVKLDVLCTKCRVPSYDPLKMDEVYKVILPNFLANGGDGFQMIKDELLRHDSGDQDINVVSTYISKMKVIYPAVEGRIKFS

[4] = biological target: T3, CD73; experiment: CD73 inhibition, AMP hydrolysis, malachite green phosphate assay; type: biochemical; conditions: calculated from the inhibition curves
[5] = biological target: T4, NaV1.6 (Homo sapiens, UniProt Q9UQD0); experiment: Whole-cell patch clamp, HEK293-NaV1.6 cells; type: cell-based
T4 construct: expressed in transfected cells; host or cells: HEK293

B1: F3-PEG3-ASF: IgG1 Ab-UAA F3 conjugated with ASF-PEG3-DBCO (conjugate)
VH: EVQLVESGGGLVQPGGSLRLSCAASGFTFSGHWMHWVRQAPGKGLEWVASISDSSSYIYYADSVRGRFTISRDNAKKTLYLQMNSLRAEDTAVYYCARDYEGATRAADYWGQGTLVTVSS
VL: DIQMTQSPSSLSASVGDRVTITCRASQVIGNDLGWYQQKPGKAPKLLIYDVSNVQTGVPSRFSGSRSGTDFTLTISSLQPEDFATYYCQQXYTTPPTFGQGTKLEI
modifications: non-natural residues
notes: IgG1 Ab-UAA F3 conjugated with ASF-PEG3-DBCO
In the case of B1, the “inhibitory activity against NaV1.2 (in words)” value [1] is reported as “no inhibitory activity” and the IC50 ([2]; non-competitive screening clones, 15 min incubation, read-out: IC50 ± SEM (nM) of Ab-PEG3-ASF in inhibiting NaV1.7) is reported as 2.69 ± 0.687 nM.

B2: ABN3-2G-BN3: IgG1 antibody ABN3-2G conjugated to BN3 (conjugate)
VH: EVQLVESGGGLVQPGGSLRLSCAASGITFGSYTMSWVRQAPGKGLEWIGTVHYTGKTFYSPSLKSRVTISADTSKNTAYLQMNSLRAEDTAVYYCARGRDFGEPPYVRAFDIWGQGTLVTVSS
VL: B1 VL with R24Q, Q27H, V28D, G30S, N31K, D32Y, G34N, V51A, V54L, Q55E
modifications: not fully specified; non-natural residues
In the case of B2, the “Kdis” value [3] is reported as 0.000271 s⁻¹ and the “Kon” value [3] is reported as 3.05 × 10^5 1/ms.

B3: 10A7-BN3: IgG1 antibody 10A7 conjugated to BN3 (conjugate)
VH: EVQLVESGGGLVQPGGSLRLSCAASGFAFSSYSMSWVRQAPGKGLEWIGSIYYSGSTYYNPSLKSRVTISADTSKNTAYLQMNSLRAEDTAVYYCARNSGFETLDYWGQGTLVTVSS
VL: DIQMTQSPSSLSASVGDRVTITCRASQGISRWLAWYQQKPGKAPNLLIYGASTLQSGVPPRFSGSRSGTDFTLTISSLQPEDFATYYCQQXYTTPPTFGQGTKLEI
modifications: non-natural residues
With B3 the “Kdis” value [3] was 0.000191 s⁻¹, the “Kon” value [3] was 2.15 × 10^5 1/ms and the IC90 [4] was 2.9 nM.

B4: 5A5-PEG3-ASF: antibody 5A5 conjugated with ASF-PEG3-DBCO (conjugate)
VH: EVQLVESGGGLVQPGGSLRLSCAASGFPFSGHWMHWVRQAPGKGLEWVSGISWNGGTTGYADSVKGRFTISRDNAKNSVYLQMNSLRAEDTAVYYCARDDYGGDSFDSWGQGTLVTVSS
VL: B3 VL with G28S, R31D, N45K, G50A, T53S, P60S
modifications: non-natural residues
notes: antibody 5A5 conjugated with ASF-PEG3-DBCO
With B4 the “improvement of NaV1.6 inhibitory activity over ASF-PEG3-DBCO” value [5] was “more than 20 fold”, the “inhibitory activity against NaV1.2 (in words)” value [1] was “no inhibitory activity” and the “inhibitory activity against NaV1.7 (in words)” value [2] was “no inhibitory activity”.

B5: 14E6-PEG3-ASF: antibody 14E6 conjugated with ASF-PEG3-DBCO (conjugate)
VH: EVQLVESGGGLVQPGGSLRLSCAASGFTFSNFAMHWVRQAPGKGLEYVSAISGGNGGGTYYADSAKGRFTISADTSKNTAYLQMNSLRAEDTAVYYCAREGNYCLDYWGQGTLVTVSS
VL: B3 VL with G28P, R31D, N45K, L46S, G50D, S52Y, T53N
modifications: not fully specified; non-natural residues
notes: antibody 14E6 conjugated with ASF-PEG3-DBCO
With B5 the “inhibitory activity against NaV1.2 at 100 nM (in words)” value [1] was “near-complete inhibition” and the “inhibitory activity against NaV1.7 (in words)” value [2] was “no inhibitory activity”.

B6: 14H4-PEG3-ASF: antibody 14H4 conjugated with ASF-PEG3-DBCO (conjugate)
VH: EVQLVESGGGLVQPGGSLRLSCAASGFSFSKFWMHWVRQAPGKGLEWVAFMAHDESNKNYADSVKGRFTISADTSKNTAYLQMNSLRAEDTAVYYCARDKVCNTFDIWGQGTLVTVSS
VL: B3 VL with G28S, R31S, W32D, A34N, N45K, G50R, S52T, T53F, Q55E, P60S
modifications: not fully specified; non-natural residues
notes: antibody 14H4 conjugated with ASF-PEG3-DBCO
In the case of B6, the “inhibitory activity against NaV1.2 at 100 nM (in words)” value [1] is reported as “near-complete inhibition”, the “inhibition rate of NaV1.7 at 100 nM” value ([2]; 100 nM) is reported as “about 30%” and the “inhibition rate of NaV1.7 at 500 nM” value ([2]; 500 nM) is reported as “about 40%”.

B7: ABN3-2B-BN3: IgG1 antibody ABN3-2B conjugated to BN3 (conjugate)
VH: EVQLVESGGGLVQPGGSLRLSCAASGFTFSSYWMHWVRQAPGKGLEWVSAVSGSGDSTYYADSVKGRFTISADTSKNTAYLQMNSLRAEDTAVYYCAREGDWGLDYWGQGTLVTVSS
VL: B1 VL with V28G, G30N, D32Y, G34A, V51A, V54L, Q55E
modifications: not fully specified; non-natural residues
In the case of B7, the “Kdis” value [3] is reported as 0.000582 s⁻¹ and the “Kon” value [3] is reported as 1.85 × 10^5 1/ms.
